Measurements: the supplement of paper PMC12458215
± gives the uncertainty stated by the source.

System: HEK293T
Experiment: plasma membrane surface immunostaining intensity (anti-HA, deep receptor scanning) (arbitrary fluorescence units); higher = higher plasma membrane expression

| Sequence | plasma membrane surface immunostaining intensity (GPCR class: A) | plasma membrane surface immunostaining intensity (GPCR class: A (Olfactory)) | further results |
| --- | --- | --- | --- |
| MALTPESPSSFPGLAATGSSVPEPPGGPNATLNSSWASPTEPSSLEDLVATGTIGTLLSAMGVVGVVGNAYTLVVTCRSLRAVASMYVYVVNLALADLLYLLSIPFIVATYVTKEWHFGDVGCRVLFGLDFLTMHASIFTLTVMSSERYAAVLRPLDTVQRPKGYRKLLALGTWLLALLLTLPVMLAMRLVRRGPKSLCLPAWGPRAHRAYLTLLFATSIAGPGLLIGLLYARLARAYRRSQRASFKRARRPGARALRLVLGIVLLFWACFLPFWLWQLLAQYHQAPLAPRTARIVNYLTTCLTYGNSCANPFLYTLLTRNYRDHLRGRVRGPGSGGGRGPVPSLQPRARFQRCSGRSLSSCSPQPTDSLVLAPAAPARPAPEGPRAPA [UTS2R] | 2430 ± 120 |  |  |
| MSGENVTRVGTFILVGFPTAPGLQYLLFLLFLLTYLFVLVENLAIILTVWSSTSLHRPMYYFLSSMSFLEIWYVSDITPKMLEGFLLQQKRISFVGCMTQLYFFSSLVCTECVLLASMAYDRYVAICHPLRYHVLVTPGLCLQLVGFSFVSGFTISMIKVCFISSVTFCGSNVLNHFFCDISPILKLACTDFSTAELVDFILAFIILVFPLLATMLSYAHITLAVLRIPSATGCWRAFFTCASHLTVVTVFYTALLFMYVRPQAIDSRSSNKLISVLYTVITPILNPLIYCLRNKEFKNALKKAFGLTSCAVEGRLSSLLELHLQIHSQPL [OR6B3] |  | 115 ± 11 |  |
| MCWTMPSPFTGSSTRNMESGNQSTVTEFIFTGFPQLQDGSLLYFFPLLFIYTFIIIDNLLIFSAVRLDTHLHNPMYNFISIFSFLEIWYTTATIPKMLSNLISEKKAISMTGCILQMYFFHSLENSEGILLTTMAIDRYVAICNPLRYQMIMTPRLCAQLSAGSCLFGFLILLPEIVMISTLPFCGPNQIHQIFCDLVPVLSLACTDTSMILIEDVIHAVTIIITFLIIALSYVRIVTVILRIPSSEGRQKAFSTCAGHLMVFPIFFGSVSLMYLRFSDTYPPVLDTAIALMFTVLAPFFNPIIYSLRNKDMNNAIKKLFCLQKVLNKPGG [OR6K3] |  | 197 ± 66 |  |
| MEPEKQTEISEFFLQGLSEKPEHQTLLFTMFLSTYLVTIIGNALIILAIITDSHLHTPMYFFLFNLSLVDTLLSSTTVPKMLANIQAQSRAIPFVGCLTQMYAFHLFGTMDSFLLAVMAIDRFVAIVHPQRYLVLMCSPVCGLLLGASWMITNLQSLIHTCLMAQLTFCAGSEISHFFCDLMPLLKLSGSDTHTNELVIFAFGIVVGTSPFSCILLSYIRIFWTVFKIPSTRGKWKAFSTCGLHLTVVSLSYGTIFAVYLQPTSPSSSQKDKAAALMCGVFIPMLNPFIYSIRNKDMKAALGKLIGKVAVPCPRPEQLLDVYHVPGSLLAARDTEMHPIPYPGGVQSLAGNRDME [OR1I1] |  | 161 ± 47 |  |
| MGKENCTTVAEFILLGLSDVPELRVCLFLLFLLIYGVTLLANLGMTALIQVSSRLHTPVYFFLSHLSFVDFCYSSIIVPKMLANIFNKDKAISFLGCMVQFYLFCTCGVTEVFLLAVMAYDRFVAICNPLLYMVTMSQKLRVELTSCCYFCGTVCSLIHSSLALRILFYRSNVINHFFCDLPPLLSLACSDVTVNETLLFLVATLNESVTIMIILTSYLLILTTILKIHSAESRHKAFSTCASHLTAITVSHGTILYIYCRPSSGNSGDVDKVATVFYTVVIPMLNPLIYSLRNKDVNKALRKVMGSKIHS [OR5L2] |  | 140 ± 35 |  |
| MDHQDPYSVQATAAIAAAITFLILFTIFGNALVILAVLTSRSLRAPQNLFLVSLAAADILVATLIIPFSLANELLGYWYFRRTWCEVYLALDVLFCTSSIVHLCAISLDRYWAVSRALEYNSKRTPRRIKCIILTVWLIAAVISLPPLIYKGDQGPQPRGRPQCKLNQEAWYILASSIGSFFAPCLIMILVYLRIYLIAKRSNRRGPRAKGGPGQGESKQPRPDHGGALASAKLPALASVASAREVNGHSKSTGEKEEGETPEDTGTRALPPSWAALPNSGQGQKEGVCGASPEDEAEEEEEEEEEEEECEPQAVPVSPASACSPPLQQPQGSRVLATLRGQVLLGRGVGAIGGQWWRRRAQLTREKRFTFVLAVVIGVFVLCWFPFFFSYSLGAICPKHCKVPHGLFQFFFWIGYCNSSLNPVIYTIFNQDFRRAFRRILCRPWTQTAW [ADRA2B] | 6390 ± 13 |  |  |
| MKKENQSFNLDFILLGVTSQQEQNNVFFVIFLCIYPITLTGNLLIILAICADIRLHNPMYFLLANLSLVDIIFSSVTIPKVLANHLLGSKFISFGGCLMQMYFMIALAKADSYTLAAMAYDRAVAISCPLHYTTIMSPRSCILLIAGSWVIGNTSALPHTLLTASLSFCGNQEVANFYCDIMPLLKLSCSDVHFNVKMMYLGVGVFSLPLLCIIVSYVQVFSTVFQVPSTKSLFKAFCTCGSHLTVVFLYYGTTMGMYFRPLTSYSPKDAVITVMYVAVTPALNPFIYSLRNWDMKAALQKLFSKRISS [OR1A2] |  | 207 ± 46 |  |
| MDTGPDQSYFSGNHWFVFSVYLLTFLVGLPLNLLALVVFVGKLRCRPVAVDVLLLNLTASDLLLLLFLPFRMVEAANGMHWPLPFILCPLSGFIFFTTIYLTALFLAAVSIERFLSVAHPLWYKTRPRLGQAGLVSVACWLLASAHCSVVYVIEFSGDISHSQGTNGTCYLEFRKDQLAILLPVRLEMAVVLFVVPLIITSYCYSRLVWILGRGGSHRRQRRVAGLVAATLLNFLVCFGPYNVSHVVGYICGESPVWRIYVTLLSTLNSCVDPFVYYFSSSGFQADFHELLRRLCGLWGQWQQESSMELKEQKGGEEQRADRPAERKTSEHSQGCGTGGQVACAEN [GPR42] | 798 ± 40 |  |  |
| MVLASGNSSSHPVSFILLGIPGLESFQLWIAFPFCATYAVAVVGNITLLHVIRIDHTLHEPMYLFLAMLAITDLVLSSSTQPKMLAIFWFHAHEIQYHACLIQVFFIHAFSSVESGVLMAMALDCYVAICFPLRHSSILTPSVVIKLGTIVMLRGLLWVSPFCFMVSRMPFCQHQAIPQSYCEHMAVLKLVCADTSISRGNGLFVAFSVAGFDMIVIGMSYVMILRAVLQLPSGEARLKAFSTRSSHICVILALYIPALFSFLTYRFGHDVPRVVHILFANLYLLIPPMLNPIIYGVRTKQIGDRVIQGCCGNIP [OR52R1] |  | 173 ± 48 |  |
| MSVCYRPPGNETLLSWKTSRATGTAFLLLAALLGLPGNGFVVWSLAGWRPARGRPLAATLVLHLALADGAVLLLTPLFVAFLTRQAWPLGQAGCKAVYYVCALSMYASVLLTGLLSLQRCLAVTRPFLAPRLRSPALARRLLLAVWLAALLLAVPAAVYRHLWRDRVCQLCHPSPVHAAAHLSLETLTAFVLPFGLMLGCYSVTLARLRGARWGSGRHGARVGRLVSAIVLAFGLLWAPYHAVNLLQAVAALAPPEGALAKLGGAGQAARAGTTALAFFSSSVNPVLYVFTAGDLLPRAGPRFLTRLFEGSGEARGGGRSREGTMELRTTPQLKVVGQGRGNGDPGGGMEKDGPEWDL [LTB4R2] | 4310 ± 330 |  |  |
| MELAVGNLSEGNASWPEPPAPEPGPLFGIGVENFVTLVVFGLIFALGVLGNSLVITVLARSKPGKPRSTTNLFILNLSIADLAYLLFCIPFQATVYALPTWVLGAFICKFIHYFFTVSMLVSIFTLAAMSVDRYVAIVHSRRSSSLRVSRNALLGVGCIWALSIAMASPVAYHQGLFHPRASNQTFCWEQWPDPRHKKAYVVCTFVFGYLLPLLLICFCYAKVLNHLHKKLKNMSKKSEASKKKTAQTVLVVVVVFGISWLPHHIIHLWAEFGVFPLTPASFLFRITAHCLAYSNSSVNPIIYAFLSENFRKAYKQVFKCHIRKDSHLSDTKESKSRIDTPPSTNCTHV [GALR1] | 6490 ± 69 |  |  |
| MAVGRNNTIVTKFILLGLSDHPQMKIFLFMLFLGLYLLTLAWNLSLIALIKMDSHLHMPMYFFLSNLSFLDICYVSSTAPKMLSDIITEQKTISFVGCATQYFVFCGMGLTECFLLAAMAYDRYAAICNPLLYTVLISHTLCLKMVVGAYVGGFLSSFIETYSVYQHDFCGPYMINHFFCDLPPVLALSCSDTFTSEVVTFIVSVVVGIVSVLVVLISYGYIVAAVVKISSATGRTKAFSTCASHLTAVTLFYGSGFFMYMRPSSSYSLNRDKVVSIFYALVIPVVNPIIYSFRNKEIKNAMRKAMERDPGISHGGPFIFMTLG [OR5A2] |  | 267 ± 110 |  |
| MNECHYDKHMDFFYNRSNTDTVDDWTGTKLVIVLCVGTFFCLFIFFSNSLVIAAVIKNRKFHFPFYYLLANLAAADFFAGIAYVFLMFNTGPVSKTLTVNRWFLRQGLLDSSLTASLTNLLVIAVERHMSIMRMRVHSNLTKKRVTLLILLVWAIAIFMGAVPTLGWNCLCNISACSSLAPIYSRSYLVFWTVSNLMAFLIMVVVYLRIYVYVKRKTNVLSPHTSGSISRRRTPMKLMKTVMTVLGAFVVCWTPGLVVLLLDGLNCRQCGVQHVKRWFLLLALLNSVVNPIIYSYKDEDMYGTMKKMICCFSQENPERRPSRIPSTVLSRSDTGSQYIEDSISQGAVCNKSTS [LPAR3] | 5905 ± 32 |  |  |
| MDRRMWGAHVFCVLSPLPTVLGHMHPECDFITQLREDESACLQAAEEMPNTTLGCPATWDGLLCWPTAGSGEWVTLPCPDFFSHFSSESGAVKRDCTITGWSEPFPPYPVACPVPLELLAEEESYFSTVKIIYTVGHSISIVALFVAITILVALRRLHCPRNYVHTQLFTTFILKAGAVFLKDAALFHSDDTDHCSFSTVLCKVSVAASHFATMTNFSWLLAEAVYLNCLLASTSPSSRRAFWWLVLAGWGLPVLFTGTWVSCKLAFEDIACWDLDDTSPYWWIIKGPIVLSVGVNFGLFLNIIRILVRKLEPAQGSLHTQSQYWRLSKSTLFLIPLFGIHYIIFNFLPDNAGLGIRLPLELGLGSFQGFIVAILYCFLNQEVRTEISRKWHGHDPELLPAWRTRAKWTTPSRSAAKVLTSMC [GHRHR] |  |  | plasma membrane surface immunostaining intensity (GPCR class: B): 108 ± 5.4 |
| MQRANHSTVTQFILVGFSVFPHLQLMLFLLFLLMYLFTLLGNLLIMATVWSERSLHTPMYLFLCALSVSEILYTVAIIPRMLADLLSTQRSIAFLACASQMFFSFSFGFTHSFLLTVMGYDRYVAICHPLRYNVLMSPRGCACLVGCSWAGGLVMGMVVTSAIFHLAFCGHKEIHHFACHVPPLLKLACGDDVLVVAKGVGLVCITALLGCFLLILLSYAFIVAAILKIPSAEGRNKAFSTCASHLTVVVVHYGFASVIYLKPKSPQSLEGDTLMGITYTVLTPFLSPIIFSLRNKELKVAMKKTFFSKLYPEKNVMM [OR10H1] |  | 121 ± 17 |  |
| MDPTTPAWGTESTTVNGNDQALLLLCGKETLIPVFLILFIALVGLVGNGFVLWLLGFRMRRNAFSVYVLSLAGADFLFLCFQIINCLVYLSNFFCSISINFPSFFTTVMTCAYLAGLSMLSTVSTERCLSVLWPIWYRCRRPRHLSAVVCVLLWALSLLLSILEGKFCGFLFSDGDSGWCQTFDFITAAWLIFLFMVLCGSSLALLVRILCGSRGLPLTRLYLTILLTVLVFLLCGLPFGIQWFLILWIWKDSDVLFCHIHPVSVVLSSLNSSANPIIYFFVGSFRKQWRLQQPILKLALQRALQDIAEVDHSEGCFRQGTPEMSRSSLV [MRGPRX2] | 359 ± 8.2 |  |  |
| MFSPWKISMFLSVREDSVPTTASFSADMLNVTLQGPTLNGTFAQSKCPQVEWLGWLNTIQPPFLWVLFVLATLENIFVLSVFCLHKSSCTVAEIYLGNLAAADLILACGLPFWAITISNNFDWLFGETLCRVVNAIISMNLYSSICFLMLVSIDRYLALVKTMSMGRMRGVRWAKLYSLVIWGCTLLLSSPMLVFRTMKEYSDEGHNVTACVISYPSLIWEVFTNMLLNVVGFLLPLSVITFCTMQIMQVLRNNEMQKFKEIQTERRATVLVLVVLLLFIICWLPFQISTFLDTLHRLGILSSCQDERIIDVITQIASFMAYSNSCLNPLVYVIVGKRFRKKSWEVYQGVCQKGGCRSEPIQMENSMGTLRTSISVERQIHKLQDWAGSRQ [BDKRB2] | 664 ± 47 |  |  |
